Literature values, collected in paper PMC5648805.

How the values were obtained:
Orai1 (Homo sapiens) = Orai1 (Homo sapiens) (UniProt Q96D31)
[1] = molecular target: Calmodulin (Homo sapiens) (UniProt P0DP23); test: ITC

Chain of UniProt Q96D31 (Q96D31 whole entry): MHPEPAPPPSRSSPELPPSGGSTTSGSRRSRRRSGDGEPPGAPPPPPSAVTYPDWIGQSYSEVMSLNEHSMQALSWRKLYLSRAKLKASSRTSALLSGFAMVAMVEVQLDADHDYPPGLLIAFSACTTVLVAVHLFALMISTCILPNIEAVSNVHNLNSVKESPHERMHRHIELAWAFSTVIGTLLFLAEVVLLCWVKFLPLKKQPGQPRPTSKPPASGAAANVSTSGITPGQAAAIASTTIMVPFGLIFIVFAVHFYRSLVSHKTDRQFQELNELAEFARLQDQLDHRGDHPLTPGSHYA

Substance	Kd (Orai1 (Homo sapiens)) [µM]	Kd [1] [µM]
STIM1 SOAR (from UniProt Q13586)	200	–
STIM1 polybasic peptide polybasic region (from UniProt Q13586)	–	1
